Data published in patent US20200062814A1.

Assays:
[1] = system: mouse IgG1 (Fc)-LAP-MMP-IFN
[2] = molecular target: mouse IgG1 (Fc)-LAP-MMP-IFN; assay: cell-based or functional assay

Chain of mouse IgG1 (Fc)-LAP-MMP-IFN (chain, as listed by the source): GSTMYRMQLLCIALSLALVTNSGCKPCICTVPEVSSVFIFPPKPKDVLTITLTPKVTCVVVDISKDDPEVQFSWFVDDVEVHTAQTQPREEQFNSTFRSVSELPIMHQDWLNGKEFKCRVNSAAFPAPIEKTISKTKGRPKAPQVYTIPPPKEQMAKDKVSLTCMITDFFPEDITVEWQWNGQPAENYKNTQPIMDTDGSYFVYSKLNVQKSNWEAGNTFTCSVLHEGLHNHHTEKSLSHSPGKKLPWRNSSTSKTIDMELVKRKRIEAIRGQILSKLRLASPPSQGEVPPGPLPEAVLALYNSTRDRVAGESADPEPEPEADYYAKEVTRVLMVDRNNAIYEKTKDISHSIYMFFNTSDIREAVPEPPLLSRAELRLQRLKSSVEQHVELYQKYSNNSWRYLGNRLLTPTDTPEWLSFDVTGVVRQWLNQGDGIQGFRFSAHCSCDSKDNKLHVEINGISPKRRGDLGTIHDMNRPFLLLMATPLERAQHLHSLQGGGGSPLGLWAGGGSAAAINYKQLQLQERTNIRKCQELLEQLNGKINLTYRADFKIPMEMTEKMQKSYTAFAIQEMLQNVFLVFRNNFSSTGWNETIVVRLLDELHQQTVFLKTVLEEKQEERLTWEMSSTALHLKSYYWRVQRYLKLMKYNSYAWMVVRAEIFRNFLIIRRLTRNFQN
Chain of recombinant MMP-1 (P03956 100-469): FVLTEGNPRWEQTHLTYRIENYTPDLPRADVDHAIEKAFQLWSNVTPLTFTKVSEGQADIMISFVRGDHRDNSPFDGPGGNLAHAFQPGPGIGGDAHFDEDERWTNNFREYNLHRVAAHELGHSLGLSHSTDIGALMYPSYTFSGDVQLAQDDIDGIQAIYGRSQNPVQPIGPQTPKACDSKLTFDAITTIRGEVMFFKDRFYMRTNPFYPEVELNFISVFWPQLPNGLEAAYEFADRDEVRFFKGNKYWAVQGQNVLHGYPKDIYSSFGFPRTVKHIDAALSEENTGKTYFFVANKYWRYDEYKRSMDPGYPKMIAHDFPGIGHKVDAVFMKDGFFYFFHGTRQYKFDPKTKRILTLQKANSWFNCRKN

Substance | IFN biological activity (U/ml) [1] [U/ml] | cleavage of Ig-LAP-IFN by MMP1 (western blot with anti-LAP antibodies after non-denaturing SDS-PAGE) [1] | Luciferase activity (viability of L929 cells after EMC virus infection) [2]
recombinant MMP-1 | 30 | The molecular weight of the cleaved Ig-LAP corresponds to the expected size of about 160 kDa. | –
recombinant MMP-1 (enzyme) | – | – | 5070
